The results in this text go back to article PMC10529462 (Brain research, 2023).

Residue numbers refer to the chain shown, from its start. Names and notes keep the numbering of the source. No end group written: not given here.

Common to all, as to experiment: fluorescence polarisation
One assay addresses TAMRA-PS1-10mer.
For assay [1], the target named is T1, Mint1^Y549A/F610A C-terminal construct, amino acids 453-839 (rat, UniProt O35430 453-839, Y549A | F610A).
T1 sequence (looked up): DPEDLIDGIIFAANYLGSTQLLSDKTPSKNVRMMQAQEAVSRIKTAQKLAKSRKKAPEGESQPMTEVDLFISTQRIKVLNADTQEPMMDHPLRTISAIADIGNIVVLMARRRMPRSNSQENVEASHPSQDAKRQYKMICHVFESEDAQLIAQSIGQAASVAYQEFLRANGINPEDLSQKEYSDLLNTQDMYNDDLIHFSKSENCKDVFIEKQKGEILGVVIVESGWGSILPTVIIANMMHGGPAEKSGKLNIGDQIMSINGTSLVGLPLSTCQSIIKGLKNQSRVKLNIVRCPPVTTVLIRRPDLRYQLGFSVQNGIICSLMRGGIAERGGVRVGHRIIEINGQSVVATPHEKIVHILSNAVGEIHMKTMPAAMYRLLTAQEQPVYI

Assay [2] has as its target T2, Mint1^Y633A C-terminal construct, amino acids 453-839 (rat, UniProt O35430 453-839, Y633A).
T2 sequence (looked up): T1 sequence (looked up) with A97Y, A158F, Y181A

For assay [3], the target named is T3, Mint1^WT C-terminal construct, amino acids 453-839 (rat, UniProt O35430 453-839).
T3 sequence (looked up): T1 sequence (looked up) with A97Y, A158F

B1: Mint1^Y633A C-terminal construct, amino acids 453-839 (domain or fragment)
chain: T1 sequence (looked up) with A97Y, A158F, Y181A
For the molecule B1, in the assay with TAMRA-PS1-10mer, the Kd came out at 139 µM.

B2: Mint1^Y549A/F610A C-terminal construct, amino acids 453-839 (domain or fragment)
chain: T1 sequence (looked up)
B2 returned a Kd with TAMRA-PS1-10mer of 301 µM.

B3: Mint1^WT C-terminal construct, amino acids 453-839 (domain or fragment)
chain: T1 sequence (looked up) with A97Y, A158F
Turning to B3, in the assay with TAMRA-PS1-10mer, the Kd was 358 µM.

Consider {TAMRA}-NNGQNGYENPTYKFFEQMQN [TAMRA-APP17-mer], for which the Kd in assay [1] stood at 382 ± 12.5 µM; in assay [2], 14.5 ± 0.74 µM; in assay [3], 282 ± 8.3 µM.

In the case of {TAMRA}-NNGLSSGGRARHSYHHPDQDHWC [TAMRA-VGCC2.2-20mer], the values for the Kd in assay [1] and in assay [3] were 1460 ± 25.2 µM and 619 ± 57.9 µM, respectively.
